Data on 13 substances can be found in paper PMC11845725.

The target of test [1] is H. polygyrus TGF-β Mimic 6 (TGM6) (H. polygyrus). In words: ITC; binder in the syringe, target in the sample cell, concentrations as in the tables; 25 °C; 25 mM HEPES, 150 mM NaCl, 0.05% NaN3, pH 7.4; fit to a simple 1:1 binding model. For orientation: In ITC the heat of successive injections is recorded.
The target of test [2] is TGM6 domain 3 (TGM6-D3) (H. polygyrus). Described as above.
The target of test [3] is TGM6-D3 I78A (H. polygyrus). The description is as above.
Test [4] deals with TGM6-D3 P94K R95N (KN) (H. polygyrus). The test is described as above.
The target in test [5] is TGM6-D3 R38A (H. polygyrus). The test is described as above.
For test [6], the target named is TGM6-D3 R95A (H. polygyrus). The test is described as above.
Test [7] has as its target TGM6-D3 Y80A (H. polygyrus). The description is as above.
In test [8] the target is TGM6-D3 Y80F (H. polygyrus). The test is described as above.
Test [9] addresses TGM6-D3 Y93A (H. polygyrus). The description is as above.
The target in test [10] is TGM1 domain 3 (TGM1-D3) (H. polygyrus). Put plainly: ITC; binder in the syringe, target in the sample cell, concentrations as in the tables; 35 °C; 25 mM HEPES, 150 mM NaCl, 0.05% NaN3, pH 7.4; fit to a simple 1:1 binding model.
Test [11] deals with TGM1-D3 K241Q S242R G243R T244G (QRRG) (H. polygyrus). Described as above.
In test [12] the target is TGM1-D3 K254P N255R (PR) (H. polygyrus). The description is as above.
Test [13] has as its target TGM1-D3 S242R (H. polygyrus). The description is as above.
The target of test [14] is TGM6 domain 3 (TGM6-D3) (H. polygyrus). Described as above.
Test [15] concerns the target TGM6-D3 Q81K R82S R83G G84T (KSGT) (H. polygyrus). The test is described as above.
The target of test [16] is TGM6-D3 R82A (H. polygyrus). Described as above.
The target of test [17] is TGM6-D3 R82S (H. polygyrus). The test is described as above.
The target of test [18] is TGM6 domain 3 (TGM6-D3) (H. polygyrus). Put plainly: ITC; competition: 150 μM TGFBR2 in the syringe into 15 μM TGM6-D3 in the cell with 0.0 or 6.0 μM TGM1-D3; 25 °C; ITC buffer pH 7.4; global fit to a simple competitive binding model; constants are for binding in the absence of competitor.
Test [19] addresses TGF-β type II receptor extracellular domain (TGFBR2) (human). In words: ITC; binder in the syringe, target in the sample cell, concentrations as in the tables; 25 °C; 25 mM HEPES, 150 mM NaCl, 0.05% NaN3, pH 7.4; fit to a simple 1:1 binding model.
A further test addresses TGFBR2 D141A (human). Described as above.
The target in a further test is TGFBR2 I76A (human). The test is described as above.
In a further test the target is TGFBR2 D55A (human). In words: ITC; binder in the syringe, target in the sample cell, concentrations as in the tables; 35 °C; 25 mM HEPES, 150 mM NaCl, 0.05% NaN3, pH 7.4; fit to a simple 1:1 binding model.
The next test concerns the target TGFBR2 E142A (human). Described as above.
For test [20], the target named is TGFBR2 extracellular domain (TGF-β type II receptor) (UniProt P37173). Put plainly: ITC; TGM6-D3, TGM1-D3 and TGFBR2 variants, simple binding model, 1–2 replicates per variant; syringe and cell proteins in Supplementary Table 6; 25 mM HEPES, 150 mM NaCl, 0.05% NaN3, pH 7.4.
Test [21] concerns the target TGM1 domains 4 and 5 (TGM1-D45) (H. polygyrus). In words: ITC; binder in the syringe, target in the sample cell, concentrations as in the tables; 35 °C; 25 mM HEPES, 150 mM NaCl, 0.05% NaN3, pH 7.4; fit to a simple 1:1 binding model.
The target of test [22] is TGFBR2 extracellular domain (TGF-β type II receptor) (UniProt P37173).

On to “TGF-β type II receptor extracellular domain (TGFBR2)”, for which the Kd in test [1] worked out at 222 nM; in test [2] it was 360 nM; in [3], 5560 nM; in test [4] it was 270 nM; in test [5], 8030 nM; in test [6], 3820 nM. Also, the Kd in test [7] amounted to 48400 nM; in test [8] it was 1250 nM; in [9], 39000 nM; in [10], 1530 nM; in test [11] it was 170 nM; in test [12], 2620 nM. For the same substance, the Kd in test [13] was 380 nM; in [14], 437 nM; in test [15], 4490 nM; in test [16] it was 4230 nM; in test [17], 3090 nM; in test [18] it was 189 nM. The stoichiometry N in test [1] was found to be 1.16 sites; in test [2], 0.87 sites; in test [3], 0.71 sites; in test [4], 0.9 sites; in test [5], 0.85 sites; in [6] it was 1 sites. Moreover, the stoichiometry N was determined as 0.33 sites in [7]; 0.67 sites in test [8]; 0.17 sites in test [9]; 0.72 sites in test [10]; 1.1 sites in test [11]; 0.91 sites in test [12]. The stoichiometry N in test [13] amounted to 0.7 sites; in test [14] it was 1.01 sites; in [15], 0.82 sites; in test [16], 0.93 sites; in [17], 1.12 sites.

For the substance “TGM6 domain 3 (TGM6-D3) (domain or fragment)”, the Kd in test [19] came out at 350 nM; in the test with TGFBR2 D141A (human), 940 nM; with TGFBR2 I76A (human), 7350 nM; in the test with TGFBR2 D55A (human), 2250 nM; in the test with TGFBR2 E142A (human), 3170 nM. For the same substance, the stoichiometry N was 0.68 sites in test [19]; 0.75 sites in the test with TGFBR2 D141A (human); 0.69 sites with TGFBR2 I76A (human); 0.52 sites in the test with TGFBR2 D55A (human); 0.56 sites with TGFBR2 E142A (human).

For TGM1-D3 S242R (domain or fragment), the fold gain of binding affinity against wild type in test [20] turned out to be 4 fold.

TGM6-D3 Y80A (domain or fragment): the fold decrease in binding affinity against wild type in test [20] is 134 fold.

Consider TGM6-D3 R82S (domain or fragment), for which the fold loss of binding affinity against wild type in test [20] amounted to 8.6 fold.

Turning to mouse CD44 (mCD44) (receptor), in test [21], the Kd came to 126 nM and the stoichiometry N was 0.82 sites.

With TGM6-D3 R38A (domain or fragment), the fold decrease in binding affinity against wild type in test [20] stood at 22 fold.

The substance TGM6-D3 R82A (domain or fragment) showed a fold decrease in binding affinity against wild type in [20] of 11 to 12 fold.

Turning to TGM6-D3 Y80F (domain or fragment), the fold decrease in binding affinity against wild type in [20] was 3.5 fold.

In test [20], TGM6-D3 I78A (domain or fragment) came in with a fold decrease in binding affinity against wild type of 15.4 fold.

Turning to “TGM6 (TGF-β mimic 6), full-length (natural protein)”, in test [22], the IC50 of inhibition of the TGF-β1- or TGM1-stimulated CAGA luciferase reporter in NIH-3T3 fibroblasts by increasing concentrations of TGM6 was 0.05 nM and the IC50 of inhibition of the TGF-β1- or TGM1-stimulated reporter in MFB-F11 fibroblasts by increasing concentrations of TGM6 stood at 0.2 nM.

In test [20], TGM6-D3 Y93A (domain or fragment) returned a fold decrease in binding affinity against wild type of 108 fold.

TGM6-D3 R95A (domain or fragment) showed a fold decrease in binding affinity against wild type in [20] of 11.6 fold.

As usually defined, the Kd is the equilibrium constant for the complex coming apart. A lower Kd goes with higher affinity. The stoichiometry N is the number of molecules, sites or subunits per partner or assembly.
